# According to patent publication US20160238591A1 (MIT, published 2016):
# T1: Cys2-pilin-C (Streptococcus pyogenes serotype M1, UniProt Q9A1S2 18-299, N-terminal Cys2 linker attached to the shell surface of the nanocrystal (QD or dot-in-rod HNC) during shell synthesis)
# T1 construct: Tested only as a nanocrystal conjugate; also called QD-pilin-C; CdSe/CdS QD-pilin-C conjugates
# T1 sequence: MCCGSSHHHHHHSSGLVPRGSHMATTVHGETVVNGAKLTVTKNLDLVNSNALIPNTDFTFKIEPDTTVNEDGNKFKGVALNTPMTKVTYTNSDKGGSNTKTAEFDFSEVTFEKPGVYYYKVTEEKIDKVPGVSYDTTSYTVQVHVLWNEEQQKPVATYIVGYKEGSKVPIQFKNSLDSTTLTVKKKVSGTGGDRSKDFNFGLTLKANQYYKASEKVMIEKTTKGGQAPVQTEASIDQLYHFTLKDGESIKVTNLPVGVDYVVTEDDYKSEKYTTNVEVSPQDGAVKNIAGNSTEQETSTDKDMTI
# B1: CsgAHisTag amyloid fibrils (other)
# chain: GVVPQYGGGGNHGGGGNNSGPNHHHHHHHSELNIYQYGGGNSALALQTDARNSDLTITQHGGGNGADVGQGSDDSSIDLTQRGFGNSATLDQWNGKNSEMTVKQFGGGNGAAVDQTASNSSVNVTQVGFGNNATAHQYHHHHHHH
# notes: Fibrils composed only of CsgAHisTag subunits, used as a control for QD-pilin-C
# Target: T1, Cys2-pilin-C
# Assay: TEM and HRTEM (FIGS. 11, 11A and 11B)
binder,measurement,value
B1,binding result,no binding
